In US20250136687A1 (SHANDONG SIMCERE BIOPHARMACEUTICAL, published 2025):
Where two headings read alike, the source gives them in different places.

Tests used:
[1] = biological target: T1, human CD3ε/δ-His (human, UniProt P07766 23-126; P04234 22-105); test: ELISA, coated antigen
T1 construct: Bought recombinant heterodimer with His tag; also called human CD3ε/δ protein
Method: (§1) To detect the binding activity of the humanized antibodies to CD3 protein, CD3 protein was diluted with PBS to the final concentration of […], then added to a 96-well ELISA plate at 50 μL/well, and the plate was sealed with a plastic film, and incubated overnight at 4° C. On the next day, the plate was washed 2 times with PBS, and a blocking solution [PBS+2% (v/v) BSA] was added for blocking at room temperature for 2 h. The blocking solution was poured off, and the antibody (initial concentration of 100 nM, and gradient dilution at 1:10) or a negative control antibody was added at 50 µl/well. After incubation at 37° C. for 2 h, the plate was washed 3 times with PBS. […] TMB substrate was added at 50 μl/well, and incubated at room temperature for 10 min, and then a stop solution (1.0 N HCl) was added at 50 μl/well. The OD450 nm values were read by an ELISA microplate reader (Multimode Plate Reader, EnSight, purchased from Perkin Elmer).

[2] = biological target: T2, recombinant human CD3ε-ECD His protein (human, UniProt P07766 23-126); test: ELISA, coated antigen
T2 construct: extracellular domain; also called human CD3ε-His; CD3ε antigen protein; not shown: His tag
T2 sequence (P07766 23-126): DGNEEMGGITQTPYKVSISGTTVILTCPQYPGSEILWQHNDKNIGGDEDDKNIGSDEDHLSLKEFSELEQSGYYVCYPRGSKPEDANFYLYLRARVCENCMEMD
Method: as §1

[3] = biological target: T3, human CD3 on the cell surface (Jurkat cells, expanded human T cells, Jurkat-Lucia NFAT cells, human PBMC) (human, UniProt P07766 23-207; P04234 22-171; P09693 23-182); test: FACS, Jurkat cells
T3 construct: whole, on cells; Endogenous CD3 within the TCR-CD3 complex on cells (also zeta chains and TCR); the cell type is named under assay
T3 sequence (P07766 23-207, chain 1 of 3): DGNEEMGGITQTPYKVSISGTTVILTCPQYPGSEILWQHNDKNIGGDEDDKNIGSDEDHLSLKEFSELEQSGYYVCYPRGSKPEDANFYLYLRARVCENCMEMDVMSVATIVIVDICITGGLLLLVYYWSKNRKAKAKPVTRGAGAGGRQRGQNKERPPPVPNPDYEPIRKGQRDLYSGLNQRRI
T3 sequence (P04234 22-171, chain 2 of 3): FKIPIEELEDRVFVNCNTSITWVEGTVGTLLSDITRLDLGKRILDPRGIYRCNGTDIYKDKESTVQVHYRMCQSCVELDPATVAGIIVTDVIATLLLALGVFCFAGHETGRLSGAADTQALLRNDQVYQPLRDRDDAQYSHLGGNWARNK
T3 sequence (P09693 23-182, chain 3 of 3): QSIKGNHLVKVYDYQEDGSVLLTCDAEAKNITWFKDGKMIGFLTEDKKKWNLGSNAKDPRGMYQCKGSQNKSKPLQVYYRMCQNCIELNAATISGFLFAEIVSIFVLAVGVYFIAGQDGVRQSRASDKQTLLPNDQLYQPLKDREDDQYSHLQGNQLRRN
Method: (§2) The binding of the chimeric antibodies to CD3 on the cell surface was analyzed by detecting the binding of the antibodies to Jurkat cells and human T cells. Suspension cells Jurkat cells were scale-up cultured in T-75 cell culture flasks to the logarithmic growth phase, the supernatant of the medium was discarded by centrifugation, and the cell pellet was washed 2 times with PBS for later use. The expanded human T cells were washed 2 times with PBS for later use. After counting the cells in the previous step, the cell pellet was resuspended with [PBS+2% (w/w) BSA] blocking solution to 4×10⁶ cells/ml, and added to a 96-well FACS reaction plate at 50 μl/well, and then the chimeric antibody to be tested was added at 50 μl/well, and incubated at 4° C. for 1 h. The cells were centrifuged and washed 3 times with a PBS buffer. […] The cells were centrifuged and washed 5 times with PBS, and FACS (FACS Canto™, purchased from BD Company) was used for detection and result analysis. Data analysis was performed by software (CellQuest) to obtain the mean fluorescence […] (MFI) of the cells. And then software (GraphPad Prism8) was used for analysis, data fitting, and EC50 value calculation. The same method was used to simultaneously detect the binding of the chimeric antibodies to endogenous CD3 negative cells MOLT4 cells.

[4] = biological target: T4, monkey CD3ε/δ-His (monkey, UniProt Q95LI5 22-117; Q95LI8 22-105); test: ELISA, coated antigen
T4 construct: Bought recombinant heterodimer with His tag

[5] = biological target: T5, monkey CD3ε protein (monkey, UniProt Q95LI5 22-117, limits assumed); test: ELISA, coated antigen
T5 sequence (looked up): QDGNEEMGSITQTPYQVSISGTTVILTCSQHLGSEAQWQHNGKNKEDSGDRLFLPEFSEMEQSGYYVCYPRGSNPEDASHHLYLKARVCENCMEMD

[6] = biological target: T3, human CD3 on the cell surface (Jurkat …); test: cell-based or functional assay
[7] = biological target: T3, human CD3 on the cell surface (Jurkat …); test: cell-based or functional assay; remark: listed apart in the source
[8] = biological target: T3, human CD3 on the cell surface (Jurkat …); test: FACS, expanded human T cells
Method: as §2

[9] = biological target: T2, recombinant human CD3ε-ECD His protein; test: SPR (Biacore), antibody captured on Protein A chip

T1 sequence (P07766 23-126, stated change not applied, form in doubt, chain 1 of 2): as the sequence (P07766 23-126) above
T1 sequence (P04234 22-105, stated change not applied, form in doubt, chain 2 of 2): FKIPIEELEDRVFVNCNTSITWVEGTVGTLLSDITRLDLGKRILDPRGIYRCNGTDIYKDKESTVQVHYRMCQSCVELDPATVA

B1: F2B-hIgG1 (antibody, V domains shown)
VH: EVQLVESGGGLVQPGRSLRLSCAASGFTFDDYAMHWVRQAPGKGLEWVSGISWNSGSIGYADSVKGRFTISRDNAKNSLYLQMNSLRAEDTALYYCAKDSRGYGDYRLGGAYWGQGTLVTVSS
VL: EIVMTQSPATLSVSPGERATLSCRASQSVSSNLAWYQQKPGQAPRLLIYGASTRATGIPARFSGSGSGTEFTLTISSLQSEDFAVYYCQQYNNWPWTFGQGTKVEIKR
notes: also called F2Bs
max-OD450 [1]: 0.16 OD450 | binding result [2]: no binding (tested: 100 nM (initial concentration)) | max-OD450 [2]: 0.1 OD450 | EC50 [3]: 6180 pM | MFI_Max [3]: 2080 MFI | max-OD450 [4]: 0.05 OD450 | binding result [5]: no binding (tested: 100 nM (initial concentration)) | max-OD450 [5]: 0.06 OD450 | Maximum response value (RLU) [6]: 8220 RLU | EC50 (nM), luciferase reporter, Jurkat-Lucia NFAT cells [7]: 23.7 nM | Maximum response value (RLU) [7]: 14500 RLU | EC50 [8]: 15800 pM | MFI_Max [8]: 2360 MFI

B2: 40G5c-hIgG1 (antibody, V domains shown)
VH: EVQLVQSGAEVKKPGASVKVSCKASGYTFTNYYIHWVRQAPGQGLEWIGWIYPGDGNTKYNEKFKGRATLTADTSTSTAYLELSSLRSEDTAVYYCARDSYSNYYFDYWGQGTLVTVSS
VL: DIVMTQSPDSLAVSLGERATINCKSSQSLLNSRTRKNYLAWYQQKPGQPPKLLIYWASTRESGVPDRFSGSGSGTDFTLTISSLQAEDVAVYYCTQSFILRTFGQGTKVEIKR
EC50 [1]: 360 pM | max-OD450 [1]: 2.83 OD450 | EC50 [2]: 118 pM | max-OD450 [2]: 3.09 OD450 | EC50 [3]: 470 pM | MFI_Max [3]: 11300 MFI | Kd [9]: 203 pM | koff [9]: 0.000321 s⁻¹ | kon [9]: 1.58e+06 M⁻¹ s⁻¹ | EC50 [4]: 75.4 pM | max-OD450 [4]: 2.52 OD450 | EC50 [5]: 128 pM | max-OD450 [5]: 2.96 OD450 | EC50 (nM), luciferase reporter, Jurkat-Lucia NFAT cells [6]: 22.5 nM | Maximum response value (RLU) [6]: 25400 RLU | EC50 (nM), luciferase reporter, Jurkat-Lucia NFAT cells [7]: 1.74 nM | Maximum response value (RLU) [7]: 33400 RLU | EC50 [8]: 660 pM | MFI_Max [8]: 15400 MFI
